In the supplement of paper PMC9170038:

Test system: MS2 coat protein
Test: apparent KD of MS2 coat protein, switch ON state; designed switch direction (-1 OFF switch, 1 ON switch): 1; higher = weaker reporter binding
Details: FMN input: 0 or 200 uM; Eterna round: R93 (includes R88 designs)
In short: (§1)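 Values are apparent KD, taken as the median for each design of fits to normalised binding curves from individual clusters. The designed RNA switches were transcribed on-chip from Illumina sequencing clusters and exposed to SNAP-549-labelled MS2 coat protein at twofold increasing amounts from 0.7 or 1.5 nM to 3 µM. Titration used 100 mM Tris-HCl pH 7.5, 80 mM KCl and 4 mM MgCl2, without or with constant ligand.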

Going from “GGAGUACAUGAGGAUCACCCAUGUUGGAACGAAGUAGGAUAUGUACAAUAUUAAAUAAAAACAGAAGGACUAAUAA [Meow]” to “AAUAACUAUAACUAGGAUAUCGGAAAUAAGACAUGAGGAUCACCCAUGUAAUAAGACAAAAUAUACGAGAAGGAGUAGGGUGAAA [JR_SS002_Sub012]”, the “apparent KD of MS2 coat protein” value rises from 30.4 nM to 61.2 nM (2-fold).

“CGGGCCCGGGCGCAGGAUAUCUGAAAAAAAACAUGAGGAUCACCCAUGUGUGGGAAAAAAAAAAAAGAGAAGGGCGCCCGGGCCC [Natural State 2 -38.15 -4 kcal]” and “AUAAAUAAAAUAGAGGAUAUCCAAAACAAAACAUGAGGAUCACCCAUGUAAAAGAAAAUAAAAUGGGAGAAGGCUACAAAUAAAU [SS2 M 3]” are within 1.5-fold of each other in “apparent KD of MS2 coat protein” value: 29.4 nM for the first, 20.1 nM for the second.

“AAGAAACAUGAGGAUCACCCAUGUCGAGAGAGACGAGGAUAUCUGAAUCGAUUAGAUUACGGAGAAGGCGUGAAAA [Same State 1.2 (Same State of Confusion2 - minimal change )]” and “AAAAAACAUGAGGAUCACCCAUGUAAAAAUAUCACAGGAUAUGGAAACACGAAAGUGAAACCAGAAGGGUGAAAAG [77%, Mat - Mod of Eli, 12]” are within 1.5-fold of each other in “apparent KD of MS2 coat protein” value: 18.3 nM for the first, 20.1 nM for the second.

“AUAAAAUAAAAUGAGGAUAUCUAUAAUAAAACAUGAGGAUCACCCAUGUUUAAACAAAGAUCAUGGGAGAAGGCAUAAAAUAAAU [SS2 M 40]” and “GAAAAACAUGAGGAUCACCCAUGUGGAAAUAUGGGAGGAUAUACAAAGACGAAAGUCAAAGUAGAAGGCCUAAAAG [Mat - Same State 1 - Eli mod - D4]” are within 1.5-fold of each other in “apparent KD of MS2 coat protein” value: 15.9 nM for the first, 18.2 nM for the second.

Going from “AGGAAACAUGAGGAUCACCCAUGUAAAAAAGUGGGAGGAUAUACUAGAAGAAACAAAAUAGUAGAAGGCCUAAAAA [75%, Ex sub1, 32]” to “AAUAUAUUAAGUGAGGAUAUCAAGAAAAAAACAUGAGGAUCACCCAUGUGGGAAACACAAUAGGGUGAGAAGGUACUUAAUAUAU [Samwise Clockwise 18 - Jieux - Same State 2]”, the “apparent KD of MS2 coat protein” value rises from 9.99 nM to 10200 nM (1000-fold).

Compared with “GAAAUAAAAACACAGGAUAUCCAAAAGAAAACAUGAGGAUCACCCAUGUAAAGAAAAUAAAAAUGGGAGAAGGGUGAAAUAAAAA [Mat - Same State 2 - JL mod - D27]”, “AGAAAAUAUGGGUAGGAUAUAUAAAGAGAAACAUGAGGAUCACCCAUGUAAAGACGAGAGUCAAAAUAGAAGGACUAAAGAAAGAA [Meechl MS2 SS2 2]” is 2.8-fold higher in “apparent KD of MS2 coat protein” value: 30.4 nM for the first, 86.2 nM for the second.

“AAAGUACAUGAGGAUCACCCAUGUUGAAAAAAUCGAGGAUAUGCGAAAAAAAAAAAAAAAGCAGAAGGUGAAAAAA [I 'NO' this state well 2]” and “GGAGCCGGCACUGAGGAUAUUCAUAUUAAAACAUGAGGAUCACCCAUGUAGGCCAGAAGGCCUUGGGAGAAGGCAGGUCGACUCG [Diqureveri]” are within 1.5-fold of each other in “apparent KD of MS2 coat protein” value: 24.4 nM for the first, 20.8 nM for the second.

For “GAAAAACAUGAGGAUCACCCAUGUAGAGAUAUGGGAGGAUAUACGAAGACGAAAGACGAGGUAGAAGGCCUAAAAG [Garnet 57]”, the “apparent KD of MS2 coat protein” value was 66.1 nM.

Test system: MS2 coat protein
Test: apparent KD of MS2 coat protein, switch OFF state (with FMN for OFF switches, without FMN for ON switches); designed switch direction (-1 OFF switch, 1 ON switch): 1; higher = weaker reporter binding
Details: FMN input: 0 or 200 uM; Eterna round: R93 (includes R88 designs)
In short: as §1

First: GAAAAACAUGAGGAUCACCCAUGUAGAAACAUGGGAGGAUAUACAAAGACGAAAGUCAAAGUAGAAGGCCUAAAAA [Mat - Same State 1 - Mod - D160]
Second: AACAAUCUAUCUGAGGAUAUCAAGUCAAAGACAUGAGGAUCACCCAUGUUGCAGGAAACUGCUCUUGAGAAGGCAGAUAGAUUGA [SS2: 1130]
The “apparent KD of MS2 coat protein” value of the first is 63-fold higher: 851 nM for the first, 13.5 nM for the second.

“GGAGUACAUGAGGAUCACCCAUGUUGGAACGAAGUAGGAUAUGUACAAUAUUAAAUAAAAACAGAAGGACUAAUAA [Meow]” and “AAUAACUAUAACUAGGAUAUCGGAAAUAAGACAUGAGGAUCACCCAUGUAAUAAGACAAAAUAUACGAGAAGGAGUAGGGUGAAA [JR_SS002_Sub012]” are within 1.5-fold of each other in “apparent KD of MS2 coat protein” value: 55.1 nM for the first, 53.2 nM for the second.

Compared with “CGGGCCCGGGCGCAGGAUAUCUGAAAAAAAACAUGAGGAUCACCCAUGUGUGGGAAAAAAAAAAAAGAGAAGGGCGCCCGGGCCC [Natural State 2 -38.15 -4 kcal]”, “AUAAAUAAAAUAGAGGAUAUCCAAAACAAAACAUGAGGAUCACCCAUGUAAAAGAAAAUAAAAUGGGAGAAGGCUACAAAUAAAU [SS2 M 3]” is 1.6-fold lower in “apparent KD of MS2 coat protein” value: 48.6 nM for the first, 30.5 nM for the second.

“AAGAAACAUGAGGAUCACCCAUGUCGAGAGAGACGAGGAUAUCUGAAUCGAUUAGAUUACGGAGAAGGCGUGAAAA [Same State 1.2 (Same State of Confusion2 - minimal change )]” and “AAAAAACAUGAGGAUCACCCAUGUAAAAAUAUCACAGGAUAUGGAAACACGAAAGUGAAACCAGAAGGGUGAAAAG [77%, Mat - Mod of Eli, 12]” are within 1.5-fold of each other in “apparent KD of MS2 coat protein” value: 30.4 nM for the first, 44.1 nM for the second.

Going from “AUAAAAUAAAAUGAGGAUAUCUAUAAUAAAACAUGAGGAUCACCCAUGUUUAAACAAAGAUCAUGGGAGAAGGCAUAAAAUAAAU [SS2 M 40]” to “GAAAAACAUGAGGAUCACCCAUGUGGAAAUAUGGGAGGAUAUACAAAGACGAAAGUCAAAGUAGAAGGCCUAAAAG [Mat - Same State 1 - Eli mod - D4]”, the “apparent KD of MS2 coat protein” value rises from 14 nM to 111 nM (7.9-fold).

Going from “AGGAAACAUGAGGAUCACCCAUGUAAAAAAGUGGGAGGAUAUACUAGAAGAAACAAAAUAGUAGAAGGCCUAAAAA [75%, Ex sub1, 32]” to “AAUAUAUUAAGUGAGGAUAUCAAGAAAAAAACAUGAGGAUCACCCAUGUGGGAAACACAAUAGGGUGAGAAGGUACUUAAUAUAU [Samwise Clockwise 18 - Jieux - Same State 2]”, the “apparent KD of MS2 coat protein” value falls from 108 nM to 8.08 nM (13-fold).

Compared with “GAAAUAAAAACACAGGAUAUCCAAAAGAAAACAUGAGGAUCACCCAUGUAAAGAAAAUAAAAAUGGGAGAAGGGUGAAAUAAAAA [Mat - Same State 2 - JL mod - D27]”, “AGAAAAUAUGGGUAGGAUAUAUAAAGAGAAACAUGAGGAUCACCCAUGUAAAGACGAGAGUCAAAAUAGAAGGACUAAAGAAAGAA [Meechl MS2 SS2 2]” is 4.5-fold higher in “apparent KD of MS2 coat protein” value: 33.8 nM for the first, 151 nM for the second.

Going from “AAAGUACAUGAGGAUCACCCAUGUUGAAAAAAUCGAGGAUAUGCGAAAAAAAAAAAAAAAGCAGAAGGUGAAAAAA [I 'NO' this state well 2]” to “GGAGCCGGCACUGAGGAUAUUCAUAUUAAAACAUGAGGAUCACCCAUGUAGGCCAGAAGGCCUUGGGAGAAGGCAGGUCGACUCG [Diqureveri]”, the “apparent KD of MS2 coat protein” value rises from 38.6 nM to 288 nM (7.5-fold).

With “GAAAAACAUGAGGAUCACCCAUGUAGAGAUAUGGGAGGAUAUACGAAGACGAAAGACGAGGUAGAAGGCCUAAAAG [Garnet 57]” the “apparent KD of MS2 coat protein” value was 218 nM.
